Test results taken from US20260109761A1 (IP2IPO INNOVATIONS, published 2026).

Columns and labels:
huZIP12-ECD-GST [1] = molecular target: T1, huZIP12-ECD-GST (human, UniProt Q504Y0 24-202); test: SPR single cycle kinetics, mAb captured on protein A, 3.12-800 nM huZIP12-ECD-GST
T1 construct: also called hZIP12-ECD-GST; human ZIP12-ECD-GST; not shown: glutathione S-transferase (GST) tag
Method: (§1) Single Cycle Kinetics (SCK) involves first capturing the mAb onto the protein A sensor surface and then sequentially injecting a series of concentrations of huZIP12-ECD-GST over the surface starting at the lowest concentration and ending with the highest concentration. The final concentration is followed by a dissociation phase where buffer only is passed across the surface followed by regeneration, where the remaining bound huZIP12-ECD-GST is removed from the surface by injection of a 10 mM Glycine pH 1.5 and 50 mM NaOH solution. The SCK is repeated for each monoclonal antibody providing duplicate data and the kinetics of each interaction is evaluated by the Biacore software.
(§2) Referring to FIG. 6, there are shown the kinetic parameters obtained for all antibody variants when screened with the 3.12 nM to 800 nM huZIP12-ECD-GST. […] Affinity.

huZIP12-ECD-GST [2] = molecular target: T1, huZIP12-ECD-GST; test: SPR single cycle kinetics (Biacore): mAb captured on protein A, ZIP12-ECD-GST injected; average data
[3] = molecular target: T2, cynomolgus monkey ZIP12-ECD-GST (cynomolgus monkey, UniProt Q95KA5 24-207); test: as above
T2 construct: extracellular domain; also called cyno ZIP12 fusion protein; cynomolgus monkey ZIP12-GST-ECD; not shown: glutathione S-transferase (GST) tag

huZIP12-ECD-GST [4] = molecular target: T1, huZIP12-ECD-GST; test: SPR single cycle kinetics (Biacore): mAb captured on protein A, huZIP12-ECD-GST injected at 3.12-800 nM
Method: as §1, §2

huZIP12-ECD-GST [5] = molecular target: T1, huZIP12-ECD-GST; test: SPR single cycle kinetics, mAb captured on protein A, ZIP12-ECD-GST injected; human ZIP12-ECD-GST; Example 8 cross-species SCK (FIG. 12 average)
Excerpt: as §1, with “Surface plasmon resonance (SPR) is a label free biophysical technique that allows the direct measurement of biomolecular interactions. A single cycle kinetics (SCK) SPR direct binding assay was developed to characterise antibody binding to human, cyno, pig and canine ZIP12 fusion proteins. This assay was used to characterise the binding kinetics of the monoclonal antibody, 51B12 W99H_L1 against each of the four proteins (defined by kon, koff, KD). Single” for “Single”, “of ZIP12-ECD-GST” for “of huZIP12-ECD-GST”

[6] = molecular target: T2, cynomolgus monkey ZIP12-ECD-GST; test: SPR single cycle kinetics, mAb captured on protein A, ZIP12-ECD-GST injected; cynomolgus monkey ZIP12-ECD-GST; Example 8 cross-species SCK (FIG. 12 average)
Excerpt: as §1, with “Surface plasmon resonance (SPR) is a label free biophysical technique that allows the direct measurement of biomolecular interactions. A single cycle kinetics (SCK) SPR direct binding assay was developed to characterise antibody binding to human, cyno, pig and canine ZIP12 fusion proteins. This assay was used to characterise the binding kinetics of the monoclonal antibody, 51B12 W99H_L1 against each of the four proteins (defined by kon, koff, KD). Single” for “Single”, “of ZIP12-ECD-GST” for “of huZIP12-ECD-GST”

[7] = molecular target: T3, LOOP15 36-50 SEQ ID No: 239; test: peptide-array ELISA on mimics of the human ZIP12 ECD (peroxidase conjugate, ABTS, CCD read-out); antibody concentration of this value not given
T3 construct: constrained mimic
T3 peptide: CSRGSSGQPADLLQC
Method: (§3) The binding of antibody to each of the synthesized peptides was tested in a peptide-based ELISA. The peptide arrays were incubated with primary antibody solution (overnight at 4° C.). After washing, the peptide arrays were incubated with a 1/1000 dilution of an appropriate antibody peroxidase conjugate for one hour at 25° C. After washing, the peroxidase substrate 2,2′-azino-di-3-ethylbenzthiazoline sulfonate (ABTS) and […] of 3 percent H2O2 were added. After one hour, the colour development was measured. The colour development was quantified with a charge coupled device—camera and an image processing system.

[8] = molecular target: T4, HEL19 32-50 SEQ ID No: 242; test: as above
T4 construct: alpha-helical mimic
T4 peptide: CQDSCSRGSSGQPADLLQV
Method: as §3

[9] = molecular target: T5, HEL19 33-51 SEQ ID No: 243; test: as above
T5 construct: alpha-helical mimic
T5 peptide: CDSRCRGSSGQPADLLQVL
Method: as §3

[10] = molecular target: T6, HEL19 37-55 SEQ ID No: 244; test: as above
T6 construct: alpha-helical mimic
T6 peptide: CRGSCGQPADLLQVLSAGD
Method: as §3

[11] = molecular target: T7, BETA22 31-52 SEQ ID No: 248 (not fully specified); test: as above
T7 construct: beta-turn mimic
T7 peptide: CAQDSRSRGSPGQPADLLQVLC
Method: as §3

[12] = molecular target: T8, BETA22 32-53 SEQ ID No: 249 (not fully specified); test: as above
T8 construct: beta-turn mimic
T8 peptide: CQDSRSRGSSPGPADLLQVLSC
Method: as §3

[13] = molecular target: T9, LIN15 35-49 SEQ ID No: 224; test: as above
T9 peptide: RSRGSSGQPADLLQV
Method: as §3

[14] = molecular target: T10, LIN15 36-50 SEQ ID No: 225; test: as above
T10 peptide: SRGSSGQPADLLQVL
Method: as §3

T1 sequence (Q504Y0 24-202): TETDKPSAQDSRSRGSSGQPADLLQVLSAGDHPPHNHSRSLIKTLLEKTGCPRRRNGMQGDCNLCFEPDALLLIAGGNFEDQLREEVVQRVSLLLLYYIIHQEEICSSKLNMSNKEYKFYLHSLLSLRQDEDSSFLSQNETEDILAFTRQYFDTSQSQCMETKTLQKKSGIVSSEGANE
T2 sequence (Q95KA5 24-207): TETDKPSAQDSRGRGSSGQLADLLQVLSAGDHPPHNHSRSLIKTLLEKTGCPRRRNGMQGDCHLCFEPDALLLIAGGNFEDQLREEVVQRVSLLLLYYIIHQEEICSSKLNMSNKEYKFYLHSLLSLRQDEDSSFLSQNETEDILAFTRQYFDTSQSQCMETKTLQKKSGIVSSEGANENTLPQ

Kd (huZIP12-ECD-GST [1]): ~0.5 nM
koff (huZIP12-ECD-GST [2]): 0.000261 s⁻¹
kon (huZIP12-ECD-GST [2]): 64900 M⁻¹ s⁻¹
koff [3]: 0.000218 s⁻¹
kon [3]: 34600 M⁻¹ s⁻¹
Kd (huZIP12-ECD-GST [4]): 0.533 nM
koff (huZIP12-ECD-GST [4]): 4.98e-05 s⁻¹
kon (huZIP12-ECD-GST [4]): 93400 M⁻¹ s⁻¹
Kd (huZIP12-ECD-GST [5]): 4.02 nM
Kd [6]: 6.31 nM
value [7]: 976
value [8]: 2140
value [9]: 2610
value [10]: 2760
value [11]: 2440
value [12]: 1350
value [13]: 2460
value [14]: 2650
B1: H3_W99H_L1 (antibody, V domains shown)
VH: QVQLVESGGGVVQPGRSLRLSCAASGFTFSDYGMHWVRQAPGKGLEWVAYISSGGTTIYYADTVKGRFTISRDNSKNTLYLQMNSLRAEDTAVYYCARHTNLYAMDYWGQGTTVTVSS
VL: DIVLTQSPDSLAVSLGERATINCRASKSVSTQGYSYMHWYQQKPGQPPKFLIYLASNLESGVPDRFSGSGSGTDFTLTISSLQAEDVAVYYCQHSREVPYTFGGGTKVEIKR
notes: Fc null human IgG1 / human kappa
